Assay results from the supplement of paper PMC10201428.
± gives the standard deviation of the averaged measurements.

Experiments:
[1] = system: VchCAST RNA-guided transposition machinery (E. coli BL21(DE3) host, lacZ target); assay: relative integration efficiency (T-RL orientation) vs wild-type transposon end (log2 (normalized fold change)); transposon end mutated: right end (5 bp flank + 75 bp right end); higher = more efficient transposition
Procedure, shortened: (§1)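 Barcoded pools of 1549 left-end or 1849 right-end transposon variants were cloned into a pUC57 mini-transposon donor. Each pool was co-transformed with a T7-driven effector plasmid (CRISPR array, tniQ-cas8-cas7-cas6, tnsA-tnsB-tnsC) into E. coli BL21(DE3) and plated with 0.1 mM IPTG at 37°C for 18 h. Input plasmids and genomic integration junctions were PCR-amplified and Illumina-sequenced, with two biological output replicates and four wild-type barcodes as reference. Relative integration efficiency is output/input barcode abundance fold change, normalised to wild-type barcodes and log-transformed.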

[2] = system: VchCAST RNA-guided transposition machinery (E. coli BL21(DE3) host, lacZ target); assay: relative integration efficiency (T-LR orientation) vs wild-type transposon end (log2 (normalized fold change)); transposon end mutated: right end (5 bp flank + 75 bp right end); higher = more efficient transposition
Procedure, shortened: as §1

Row | Sequence | relative integration efficiency (log2) [1] | relative integration efficiency (log2) [2]
1 | ACATTTGTTGATACAACCATAAAATGATAATGCACAAACGCCCGGTCGCCGGCGACACAAACGCCCGGTCGCGGTAAGAGGATCATAGTCAGACCAACATTGCTACGACCCGTATTCGCACCGACAC | -2.15 ± 0.043 | 1.04 ± 0.18
2 | ACATTTGTTGATACAACCATAAAATGATAATGCACCCCATAAATTGATAATTATCACACCCATAAATTGATATTGCCTCTGATCATAGTCAGACCAACATTGCTACGACCCGTATTCGCACCGACAC | -1.24 ± 0.24 | -0.689 ± 0.18
3 | ACATTTGTTGATACAACCATAAAATGATAATGCCACCCATAAATTGATAATGCTCACACCCATAAATTGATATTTACTCTGATCATAGTCAGACCAACATTGCTACGACCCGTATTCGCACCGACAC | -0.867 ± 0.17 | -0.0326 ± 0.2
4 | ACATTTGTTGATACAACCATAAAATGATAATGCCACCCATAAATTGATAATTATCACACCCATAAATTGATATTGCCTCTGATCATAGTCAGACCAACATTGCTACGACCCGTATTCGCACCGACAC | -0.625 ± 0.1 | -0.173 ± 0.33
5 | ACATTTGTTGATACAACCATAAAATGATAATTAACAAACGCCCGGTCGCCGGCGACACAAACGCCCGGTCGCGGTAAGAGGATCATAGTCAGACCAACATTGCTACGACCCGTATTCGCACCGACAC | -2.3 ± 0.29 | 0.957 ± 0.25
6 | ACATTTGTTGATACAACCATAAAATGATAATTAACAAACGCCCGGTCGCCGGCTCAACAAACGCCCGGTCGCGGTACTCTGATCATAGTCAGACCAACATTGCTACGACCCGTATTCGCACCGACAC | -1.98 ± 0.26 | 1.12 ± 0.068
7 | ACATTTGTTGATACAACCATAAAATGATAATTAACAAACGCCCGGTCGCCGGCTCACACCCATAAATTGATATTGCCTCTGATCATAGTCAGACCAACATTGCTACGACCCGTATTCGCACCGACAC | -3.28 ± 0.31 | -0.997 ± 0.22
8 | ACATTTGTTGATACAACCATAAAATGATAATTAACAACATAAATTGATAATTATCACACCCATAAATTGATATTGCCTCTGATCATAGTCAGACCAACATTGCTACGACCCGTATTCGCACCGACAC | -0.394 ± 0.018 | -0.921 ± 0.31
9 | ACATTTGTTGATACAACCATAAAATGATAATTAACACCCATAAATTGATAATTATCAACAAACGCCCGGTCGCGGTACTCTGATCATAGTCAGACCAACATTGCTACGACCCGTATTCGCACCGACA | -0.721 ± 0.29 | 1.67 ± 0.2
10 | ACATTTGTTGATACAACCATAAAATGATAATTAACACCCATAAATTGATAATTATCACACCCATAAATTGATATTGCCTCTGATCATAGTCAGACCAACATTGCTACGACCCGTATTCGCACCGACA | -0.572 ± 0.11 | -0.437 ± 0.21
11 | ACATTTGTTGATACAACCATAAAATGATAATTAACCCCATAAATTGATAATTATCACACCCATAAATTGATATTGCCTCTGATCATAGTCAGACCAACATTGCTACGACCCGTATTCGCACCGACAC | -0.822 ± 0.075 | -0.881 ± 0.17
12 | ACATTTGTTGATACAACCATAAAATGATAATTAATAACACCCATAAATTGATAATTATCAACAAACGCCCGGTCGCGGTACTCTGATCATAGTCAGACCAACATTGCTACGACCCGTATTCGCACCG | -2.52 ± 0.17 | 0.892 ± 0.16
13 | ACATTTGTTGATACAACCATAAAATGATAATTAATAACACCCATAAATTGATAATTATCACACCCATAAATTGATATTGCCTCTGATCATAGTCAGACCAACATTGCTACGACCCGTATTCGCACCG | -3.16 ± 0.3 | 0.728 ± 0.12
14 | ACATTTGTTGATACAACCATAAAATGATAATTAATAATCACCCATAAATTGATAATTATCAACAAACGCCCGGTCGCGGTACTCTGATCATAGTCAGACCAACATTGCTACGACCCGTATTCGCACC | -2.77 ± 0.31 | 0.619 ± 0.018
15 | ACATTTGTTGATACAACCATAAAATGATAATTAATAATCACCCATAAATTGATAATTATCACACCCATAAATTGATATTGCCTCTGATCATAGTCAGACCAACATTGCTACGACCCGTATTCGCACC | -2.77 ± 0.17 | 0.894 ± 0.13
16 | ACATTTGTTGATACAACCATAAAATGATAATTAATAATTACACCCATAAATTGATAATTATCAACAAACGCCCGGTCGCGGTACTCTGATCATAGTCAGACCAACATTGCTACGACCCGTATTCGCA | -2.18 ± 0.28 | 1.37 ± 0.24
17 | ACATTTGTTGATACAACCATAAAATGATAATTAATAATTACACCCATAAATTGATAATTATCACACCCATAAATTGATATTGCCTCTGATCATAGTCAGACCAACATTGCTACGACCCGTATTCGCA | -3.12 ± 0.2 | 0.0363 ± 0.21
18 | ACATTTGTTGATACAACCATAAAATGATAATTAATAATTATCACCCATAAATTGATAATTATCAACAAACGCCCGGTCGCGGTACTCTGATCATAGTCAGACCAACATTGCTACGACCCGTATTCGC | -3.56 ± 0.2 | -0.012 ± 0.0046

Row | Sequence | relative integration efficiency (log2) [1] | relative integration efficiency (log2) [2]
19 | ACATTTGTTGATACAACCATAAAATGATAATTAATAATTATCACCCATAAATTGATAATTATCACACCCATAAATTGATATTGCCTCTGATCATAGTCAGACCAACATTGCTACGACCCGTATTCGC | -3.32 ± 0.2 | -0.503 ± 0.38
20 | ACATTTGTTGATACAACCATAAAATGATAATTAATAATTATTCACCCATAAATTGATAATTATCAACAAACGCCCGGTCGCGGTACTCTGATCATAGTCAGACCAACATTGCTACGACCCGTATTCG | -2.63 ± 0.4 | 0.337 ± 0.11
21 | ACATTTGTTGATACAACCATAAAATGATAATTAATAATTATTCACCCATAAATTGATAATTATCACACCCATAAATTGATATTGCCTCTGATCATAGTCAGACCAACATTGCTACGACCCGTATTCG | -3.976 ± 0.019 | -1.92 ± 0.46
22 | ACATTTGTTGATACAACCATAAAATGATAATTAATAATTATTTACACCCATAAATTGATAATTATCAACAAACGCCCGGTCGCGGTACTCTGATCATAGTCAGACCAACATTGCTACGACCCGTATT | -2.54 ± 0.21 | 0.163 ± 0.01
23 | ACATTTGTTGATACAACCATAAAATGATAATTAATAATTATTTACACCCATAAATTGATAATTATCACACCCATAAATTGATATTGCCTCTGATCATAGTCAGACCAACATTGCTACGACCCGTATT | -2.85 ± 0.13 | -4.57 ± 0.14
24 | ACATTTGTTGATACAACCATAAAATGATAATTAATAATTATTTATAACACCCATAAATTGATAATTATCAACAAACGCCCGGTCGCGGTACTCTGATCATAGTCAGACCAACATTGCTACGACCCGT | -2.63 ± 0.52 | 0.00268 ± 0.47
25 | ACATTTGTTGATACAACCATAAAATGATAATTAATAATTATTTATAACACCCATAAATTGATAATTATCACACCCATAAATTGATATTGCCTCTGATCATAGTCAGACCAACATTGCTACGACCCGT | -3.19 ± 0.2 | -0.494 ± 0.28
26 | ACATTTGTTGATACAACCATAAAATGATAATTAATAATTATTTATAATCACACCCATAAATTGATAATTATCAACAAACGCCCGGTCGCGGTACTCTGATCATAGTCAGACCAACATTGCTACGACC | -2.09 ± 0.28 | 1.25 ± 0.18
27 | ACATTTGTTGATACAACCATAAAATGATAATTAATAATTATTTATAATCACACCCATAAATTGATAATTATCACACCCATAAATTGATATTGCCTCTGATCATAGTCAGACCAACATTGCTACGACC | -3.38 ± 0.096 | -0.35 ± 0.25
28 | ACATTTGTTGATACAACCATAAAATGATAATTAATAATTATTTATAATCACCCATAAATTGATAATTATCAACAAACGCCCGGTCGCGGTACTCTGATCATAGTCAGACCAACATTGCTACGACCCG | -3.08 ± 0.15 | 1.05 ± 0.26
29 | ACATTTGTTGATACAACCATAAAATGATAATTAATAATTATTTATAATCACCCATAAATTGATAATTATCACACCCATAAATTGATATTGCCTCTGATCATAGTCAGACCAACATTGCTACGACCCG | -2.92 ± 0.3 | 0.877 ± 0.18
30 | ACATTTGTTGATACAACCATAAAATGATAATTAATAATTATTTATAATCAGCAACACCCATAAATTGATAATTATCAACAAACGCCCGGTCGCGGTACTCTGATCATAGTCAGACCAACATTGCTAC | -3.18 ± 0.077 | 0.0215 ± 0.36
31 | ACATTTGTTGATACAACCATAAAATGATAATTAATAATTATTTATAATCAGCAACCACCCATAAATTGATAATTATCAACAAACGCCCGGTCGCGGTACTCTGATCATAGTCAGACCAACATTGCTA | -2.29 ± 0.24 | 0.0897 ± 0.14
32 | ACATTTGTTGATACAACCATAAAATGATAATTAATAATTATTTATAATCAGCAACCACCCATAAATTGATAATTATCACACCCATAAATTGATATTGCCTCTGATCATAGTCAGACCAACATTGCTA | -3.26 ± 0.25 | -1.81 ± 0.066
33 | ACATTTGTTGATACAACCATAAAATGATAATTAATAATTATTTATAATCAGCAACTCACCCATAAATTGATAATTATCAACAAACGCCCGGTCGCGGTACTCTGATCATAGTCAGACCAACATTGCT | -2.25 ± 0.75 | -0.174 ± 0.43
34 | ACATTTGTTGATACAACCATAAAATGATAATTAATAATTATTTATAATCAGCAACTCACCCATAAATTGATAATTATCACACCCATAAATTGATATTGCCTCTGATCATAGTCAGACCAACATTGCT | -3.48 ± 0.49 | -2.22 ± 1.2
35 | ACATTTGTTGATACAACCATAAAATGATAATTAATAATTATTTATAATCAGCAACTTAACACCCATAAATTGATAATTATCAACAAACGCCCGGTCGCGGTACTCTGATCATAGTCAGACCAACATT | -3.404 ± 0.015 | -0.0617 ± 0.066
